Laboratory results reported in paper PMC4898720, “NrdR Transcription Regulation: Global Proteome Analysis and Its Role in Escherichia coli Viability and Virulence” (PLoS ONE, 2016).

Biological target: the molecule itself
Assay: SDS-PAGE of gel filtration fractions with peptide mass fingerprinting; SDS-PAGE of Superdex 200 fractions of un-refolded and refolded NrdR; ~40 kDa band identified by peptide mass fingerprinting; samples boiled 10 min with 5 mM DTT

B1: E. coli NrdR (natural protein, UniProt P0A8D0 1-149, looked up)
chain: MHCPFCFAVDTKVIDSRLVGEGSSVRRRRQCLVCNERFTTFEVAELVMPRVVKSNDVREPFNEEKLRSGMLRALEKRPVSSDDVEMAINHIKSQLRATGEREVPSKMIGNLVMEQLKKLDKVAYIRFASVYRSFEDIKEFGEEIARLED
notes: Transcriptional repressor NrdR of E. coli BW25113, full length ORF cloned between NdeI and XhoI of pET21b; also called EcNrdR; as prepared NrdR; source: E. coli BL21 (DE3), purified (HisTrap Ni column, Superdex 200 gel filtration)
Q: With B1 as the protein, how does the “stoichiometry N” value read?
A: Its value is 2.
